Measurements taken from patent publication US20240158474A1 (SINO BIOLOGICAL, published 2024).

Experiments:
Assay in all cases: indirect ELISA, VLP coated at 2 µg/mL, antibody 10 ng/mL, HRP goat anti-rabbit Fc
[1] = target: T1, HPV6 VLP protein (human papillomavirus type 6 (C-terminal …, UniProt P69898 1-469))
T1 construct: Virus-like particle self-assembled from the L1 chain, expressed in an insect cell system; also called HPV6 L1; HPV6L1(1-469Y)+HPV33L1(474K-499K)
T1 sequence: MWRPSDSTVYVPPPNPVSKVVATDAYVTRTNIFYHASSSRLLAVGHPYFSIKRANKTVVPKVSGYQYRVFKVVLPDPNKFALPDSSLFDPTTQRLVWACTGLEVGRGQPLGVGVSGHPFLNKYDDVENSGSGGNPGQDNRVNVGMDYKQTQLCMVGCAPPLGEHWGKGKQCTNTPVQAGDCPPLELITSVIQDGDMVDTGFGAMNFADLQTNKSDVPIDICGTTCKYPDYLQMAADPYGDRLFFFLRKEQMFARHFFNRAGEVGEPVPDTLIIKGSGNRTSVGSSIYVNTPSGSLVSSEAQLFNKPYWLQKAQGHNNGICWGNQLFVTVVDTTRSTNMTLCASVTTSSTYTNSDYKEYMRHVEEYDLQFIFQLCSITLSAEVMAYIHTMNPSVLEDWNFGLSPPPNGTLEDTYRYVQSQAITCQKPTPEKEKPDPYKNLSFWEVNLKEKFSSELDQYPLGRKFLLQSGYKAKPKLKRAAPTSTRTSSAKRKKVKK

[2] = target: T2, HPV31 VLP protein (human papillomavirus type 31; human …, UniProt P17388 1-475; P06416 474-499)
T2 construct: range 1-475;range 474-499; Complete VLP protein used as coating protein; also called P31SHELL(1-475Y)+HPV33L1(474K-499K)
T2 sequence: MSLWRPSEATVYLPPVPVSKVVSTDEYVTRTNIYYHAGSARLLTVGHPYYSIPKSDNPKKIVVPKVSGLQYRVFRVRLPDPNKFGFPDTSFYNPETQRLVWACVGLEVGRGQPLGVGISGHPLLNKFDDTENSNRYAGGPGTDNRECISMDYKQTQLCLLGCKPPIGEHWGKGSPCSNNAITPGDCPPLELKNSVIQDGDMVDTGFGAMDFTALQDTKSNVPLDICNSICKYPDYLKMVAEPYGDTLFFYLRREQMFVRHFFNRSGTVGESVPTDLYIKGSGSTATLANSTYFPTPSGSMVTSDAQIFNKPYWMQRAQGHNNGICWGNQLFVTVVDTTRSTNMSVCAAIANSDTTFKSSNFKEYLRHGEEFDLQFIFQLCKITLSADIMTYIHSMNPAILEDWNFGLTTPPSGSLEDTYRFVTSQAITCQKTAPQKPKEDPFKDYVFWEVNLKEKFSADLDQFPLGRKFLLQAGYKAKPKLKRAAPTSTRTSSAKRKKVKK

[3] = target: T3, HPV35 VLP protein (human papillomavirus type 35; human …, UniProt P27232 1-472; P06416 474-499)
T3 construct: range 1-472;range 474-499; Complete VLP protein used as coating protein; also called HPV35L1(1-472L)+HPV33L1(474K-499K)
T3 sequence: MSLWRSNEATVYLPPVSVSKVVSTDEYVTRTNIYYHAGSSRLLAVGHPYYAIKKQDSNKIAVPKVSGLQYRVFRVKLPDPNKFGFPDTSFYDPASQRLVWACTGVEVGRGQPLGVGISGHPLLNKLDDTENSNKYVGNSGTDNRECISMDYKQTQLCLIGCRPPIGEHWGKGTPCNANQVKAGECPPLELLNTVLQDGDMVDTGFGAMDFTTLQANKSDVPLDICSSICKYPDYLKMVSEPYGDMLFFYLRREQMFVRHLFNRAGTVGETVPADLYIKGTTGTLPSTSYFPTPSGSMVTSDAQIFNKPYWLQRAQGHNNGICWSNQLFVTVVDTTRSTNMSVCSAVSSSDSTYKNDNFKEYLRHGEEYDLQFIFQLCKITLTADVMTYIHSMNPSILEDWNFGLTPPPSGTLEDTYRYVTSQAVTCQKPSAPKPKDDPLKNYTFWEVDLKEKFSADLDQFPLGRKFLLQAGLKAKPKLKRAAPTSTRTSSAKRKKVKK

[4] = target: T4, HPV56 VLP protein (human papillomavirus type 56, UniProt P36743 36-507)
T4 construct: Complete VLP protein; no limits of the construct printed, whole entry named; also called HPV56L1
T4 sequence: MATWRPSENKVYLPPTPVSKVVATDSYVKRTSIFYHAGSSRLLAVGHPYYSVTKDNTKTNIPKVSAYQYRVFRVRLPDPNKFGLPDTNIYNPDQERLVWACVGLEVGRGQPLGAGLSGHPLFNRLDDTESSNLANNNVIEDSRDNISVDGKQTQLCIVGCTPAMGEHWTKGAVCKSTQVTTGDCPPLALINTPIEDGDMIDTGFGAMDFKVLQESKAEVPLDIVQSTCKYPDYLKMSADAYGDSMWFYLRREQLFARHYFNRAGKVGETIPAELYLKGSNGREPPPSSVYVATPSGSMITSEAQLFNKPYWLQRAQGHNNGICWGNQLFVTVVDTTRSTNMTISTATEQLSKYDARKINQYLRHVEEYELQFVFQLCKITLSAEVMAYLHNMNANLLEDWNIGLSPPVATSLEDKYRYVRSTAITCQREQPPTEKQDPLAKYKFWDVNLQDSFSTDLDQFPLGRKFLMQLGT

B1: monoclonal antibody HPV6-R003 (antibody, V domains shown)
VH: QQQLEESGGGLVKPGGTLTLTCKASGIDLSNYYMCWVRQAPGKGLEWIGCIYTGSGRTYYASWAKGRFTISKASSTTVTLQMTSLTAADTATYFCARDYLGWRASNIWGPGTLVTVSS
VL: ELVMTQTPSSVSAAVGGTVTINCQASQSVYSNNLVWYQQKPGQPPKLLIYGASTLASGVPSRFKGSGSGTQFTLTISDVVCDDAATYYCGGYVSDSTDGTAFGGGTEVVVKG
notes: here built from variable plus constant region so that the signal peptides are left out; In the sandwich ELISA the same antibody is used as coating antibody and, labelled with horseradish peroxidase, as detection antibody; also called anti-HPV6 L1 protein antibody
OD450-blank [1]: 2.42 OD450 | OD450-blank [2]: 0.047 OD450 | OD450-blank [3]: 0.048 OD450 | OD450-blank [4]: 0.042 OD450
